Consider twelve molecules from US20220098307A1 (WUHAN YZY BIOPHARMA, published 2022).

Positions count from the first letter of the chain named. Names may count otherwise.

B1: M1IC-G2 (bispecific antibody)
chain: not shown
heavy: EVKLDETGGGLVQPGRPMKLSCVASGFTFSDYWMNWVRQSPEKGLEWVAQIRNKPYNYETYYSDSVKGRFTISRDDSKSSVYLQMNNLRVEDMGIYYCTGSYYGMDYWGQGTSVTVSSASTKGPSVFPLAPSSKSTSGGTAALGCLVKDYFPEPVTVSWNSGALTSGVHTFPAVLQSSGLYSLSSVVTVPSSSLGTQTYICNVNHKPSNTKVDKKVEPKSCDKTHTCPPCPAPPVAGPSVFLFPPKPKDTLMISRTPEVTCVVVDVSHEDPEVQFNWYVDGVEVHNAKTKPREEQFNSTFRVVSVLTVVHQDWLNGKEYKCKVSNKGLPAPIEKTISKTKGQPREPQVYTLPPCRDELTKNQVSLWCLVKGFYPSDIAVEWESNGQPENNYKTTPPVLDSDGSFFLYSKLTVDKSRWQQGNVFSCSVMHEALHNHYTQKSLSLSPGK
light: DVVMTQTPLSLPVSLGDQASISCRSSQSLVHSNGNTYLRWYLQKPGQSPKVLIYKVSNRFSGVPDRFSGSGSGTDFTLKISRVEAEDLGVYFCSQSTHVPWTFGGGTKLEIKRTVAAPSVFIFPPSDEQLKSGTASVVCLLNNFYPREAKVQWKVDNALQSGNSQESVTEQDSKDSTYSLSSTLTLSKADYEKHKVYACEVTHQGLSSPVTKSFNRGEC
notes: structure 1 isotype control; CH2 G2CH2
B2: M1IC-WT (bispecific antibody)
chain: not shown
heavy: not shown
light: B1 light
notes: structure 1 isotype control; CH2 WT; also called MlIC-WT
B3: M1IC-DG2D (bispecific antibody)
chain: not shown
heavy: B1 heavy with D265A, D270A
light: B1 light
notes: structure 1 isotype control; CH2 DG2DCH2; also called MlIC-DG2D
B4: M1IC-SG2 (bispecific antibody)
chain: not shown
heavy: B1 heavy with C230S
light: B1 light
notes: structure 1 isotype control; CH2 SG2CH2
B5: M1IC-PG2 (bispecific antibody)
chain: not shown
heavy: B1 heavy with C230P
light: B1 light
notes: structure 1 isotype control; CH2 PG2CH2
B6: M1IC-NA (bispecific antibody)
chain: not shown
heavy: EVKLDETGGGLVQPGRPMKLSCVASGFTFSDYWMNWVRQSPEKGLEWVAQIRNKPYNYETYYSDSVKGRFTISRDDSKSSVYLQMNNLRVEDMGIYYCTGSYYGMDYWGQGTSVTVSSASTKGPSVFPLAPSSKSTSGGTAALGCLVKDYFPEPVTVSWNSGALTSGVHTFPAVLQSSGLYSLSSVVTVPSSSLGTQTYICNVNHKPSNTKVDKKVEPKSCDKTHTCPPCPAPELLGGPSVFLFPPKPKDTLMISRTPEVTCVVVDVSHEDPEVKFNWYVDGVEVHNAKTKPREEQYASTYRVVSVLTVLHQDWLNGKEYKCKVSNKALPAPIEKTISKAKGQPREPQVYTLPPCRDELTKNQVSLWCLVKGFYPSDIAVEWESNGQPENNYKTTPPVLDSDGSFFLYSKLTVDKSRWQQGNVFSCSVMHEALHNHYTQKSLSLSPGK
light: B1 light
notes: structure 1 isotype control; CH2 N297A
B7: M1IC-DG2 (bispecific antibody)
chain: not shown
heavy: B1 heavy with D265A
light: B1 light
notes: structure 1 isotype control; CH2 DG2CH2
B8: M1IC-G2D (bispecific antibody)
chain: not shown
heavy: B1 heavy with D270A
light: B1 light
notes: structure 1 isotype control; CH2 G2DCH2
B9: M1IC-AAG (bispecific antibody)
chain: not shown
heavy: not shown
light: B1 light
notes: structure 1 isotype control; CH2 AAG
B10: M1IC-GG2 (bispecific antibody)
chain: not shown
heavy: B1 heavy with C230G
light: B1 light
notes: structure 1 isotype control; CH2 GG2CH2
B11: M1IC-FES (bispecific antibody)
chain: not shown
heavy: B6 heavy with L235F, L236E, A298N, P332S
light: B1 light
notes: structure 1 isotype control; CH2 FES
B12: M1IC-AG2 (bispecific antibody)
chain: not shown
heavy: B1 heavy with C230A
light: B1 light
notes: structure 1 isotype control; CH2 AG2CH2

In this test the target is T1, Monkey CD3 (monkey).
T1 construct: whole, on cells; also called CD3 of monkey CD3 positive T cells
Nature of the test: flow cytometry, monkey T cells. (A flow cytometer gives signals particle by particle.)
With B1, the response was half-maximal at 10.4 nM (EC50).
The same measure for B2: 19.8 nM.
As to B3, the EC50 (usually the concentration at which the effect is half-maximal) was found to be 16 nM.
The same measure for B4: 13.2 nM; for B5: 17.8 nM; for B6: 9.63 nM.
Take B7: the EC50 stood at 14.5 nM.
On to B8, for which a half-maximal response (EC50) required 10.6 nM.
B9 gave an EC50 of 8.79 nM.
The same measure for B10: 13 nM; for B11: 11.4 nM; for B12: 14.2 nM.
